The results in this text go back to PMC3702509, “Label Free Fragment Screening Using Surface Plasmon Resonance as a Tool for Fragment Finding – Analyzing Parkin, a Difficult CNS Target” (PLoS ONE, 2013).

Sequences and labels used below:
B1: His-tagged ubiquitin-like domain of Parkin (UblD, residues 1-76) (domain or fragment, human, UniProt O60260-1 1-76, looked up)
chain: MIVFVRFNSSHGFPVEVDSDTSIFQLKEVVAKRQGVPADQLRVIFAGKELRNDWTVQNCDLDQQSIVHIVQRPWRK
notes: Parkin residues 1-76 (NM_004562.1), ubiquitin-like domain; also called His-UblD; source: E. coli BL21 DE3, purified (nickel sepharose, dialysed for Biacore); not shown: His6, C-terminal, kept
B2: Parkin domain R0RBR (residues 141-465) (domain or fragment, human, UniProt O60260-1 141-465, looked up)
chain: SIYNSFYVYCKGPCQRVQPGKLRVQCSTCRQATLTLTQGPSCWDDVLIPNRMSGECQSPHCPGTSAEFFFKCGAHPTSDKETSVALHLIATNSRNITCITCTDVRSPVLVFQCNSRHVICLDCFHLYCVTRLNDRQFVHDPQLGYSLPCVAGCPNSLIKELHHFRILGEEQYNRYQQYGAEECVLQMGGVLCPRPGCGAGLLPEPDQRKVTCEGGNGLGCGFAFCRECKEAYHEGECSAVFEASGTTTQAYRVDERAAEQARWEAASKETIKKTTKPCPRCHVPVEKNGGCMHMKCPQPQCRLEWCWNCGCEWNRVCMGDHWFDV
notes: Parkin residues 141-465 (NM_004562.1), R0, R1, IBR and R2 domains; Cloned into the Champion pET SUMO vector; The Sumo tag was removed with SENP1, and the protein is called untagged in the SPR methods; also called R0RBR Domain; source: E. coli BL21 DE3, purified (Ni sepharose, Mono Q, SENP1 cleavage, Superdex 200)

Assay in all cases: SPR; untagged R0RBR immobilised by amine coupling (10 mM acetic acid pH 5.0) on a CM5 chip; protein ligands injected; 25°C; 10 mM HEPES pH 7.4, 150 mM NaCl, 0.005% Tween-20, 4 mM reducing agent; 1:1 binding model
Common to all, as to conditions: both partners purified
(Surface plasmon resonance follows binding to a sensor surface in real time, without labels.)

Test [1] has as its target B2.
For test [2], the target named is T1, Ubiquitin (UniProt P0CG47 1-76).
T1 construct: ubiquitin, the cut product of a polyubiquitin or fusion precursor; neither species nor construct is stated; also called Ubq; source: bought: Boston Biochem

For test [3], the target named is T2, UbcH7, E2 ubiquitin conjugating enzyme (UBE2L3 residues 1-154) (human, UniProt P68036-1 1-154).
T2 construct: UBE2L3 (UbcH7) residues 1-154 from NM_003347.2; UbcH7 was also bought from Boston Biochem. TEV cleavage probably leaves SS at the N-terminus (surmised); also called E2 UbcH7; source: E. coli BL21 DE3, purified (nickel sepharose, TEV cleavage, Superdex 200); not shown: His8, N-terminal, cleaved
T2 sequence (P68036 whole entry, the tested form may be a part): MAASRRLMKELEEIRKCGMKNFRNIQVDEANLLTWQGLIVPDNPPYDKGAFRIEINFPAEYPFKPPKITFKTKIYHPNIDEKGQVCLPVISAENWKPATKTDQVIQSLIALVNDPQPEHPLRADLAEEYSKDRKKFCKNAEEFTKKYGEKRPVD

For B1, in test [1], the equilibrium dissociation constant (Kd) is 6 µM. As for B2, the values for the dissociation constant Kd in test [2] and in test [3] were 96 µM and 7.1 µM, respectively.

As a reminder, the Kd is the free concentration of one partner at which half of the binding sites on the other are occupied at equilibrium, for simple one-to-one binding. A higher Kd goes with lower affinity.
